Experiment [1] has as its target T1, biotinylated CD80-Igαtp binding to immobilized CD28-Ig (Homo sapiens, UniProt P10747).
T1 construct: native leader and extracellular domain peptide of CD28 and CD80 were grafted onto a human IgG1 heavy chain Fc region; human IgG1 Fc (hinge/CH2/CH3); made in house; host or cells: CHO cells
Kind of experiment: Competition ELISA of biotinylated CD80-Igαtp binding to immobilized CD28-Ig. The settings on record: competitor added simultaneously; wells coated with CD28-Ig. As for the experimental part:
The wells of 96 well microtiter plates (Immunlon 4, Dynatech Laboratories) were coated with CD28-Ig (1, 2, or4 μg/ml) in 100 μl/well of 0.1 M sodium bicarbonate, pH 9.4 and incubated overnite @4° C. The wells were washed with PBS (phosphate buffered saline) and blocked with 0.5% gelatin in PBS for 1 hour. Following an additional PBS wash, biotinylated CD80-Igαtp was serially diluted in PBS containing 1 mg/ml BSA, 0.05% Tween directly in the wells in a final volume of 0.1 ml and incubated for 1 hour. The wells were washed with PBS and bound CD80-Igαtp protein was measured by the addition of 0.1 ml of strepavidin-HRP (streptavidin conjugated with horseradish peroxidase (Southern Biotech)) at a 1:2000 dilution for 1 hour, followed by washing and color development with 100 μl ABTS substrate (Kierkegaard and Perry Laboratories Inc., Maryland) and measurement of absorbance at 405 nm. In some cases the color reactions were arrested by addition of 100 μl of 1% SDS prior to measurement of absorbance. In this figure, “CD28-Fc”, “CTLA4-Fc”, and “B7-FcA” denote CD28-Ig, CTLA4-Ig, and CD80-Igαtp, respectively.
(An ELISA detects its analyte on a solid surface through an enzyme-linked reagent.)

The test system of experiment [2] is murine T-cell hybridoma cell lines expressing human CD28 (PCD28.1.s2.1, DCL27CD28wt.s2). Nature of the experiment: IL-2 production by CD28 T-cell hybridomas (CTLL-2 bioassay). It is filed as cell-based. The settings on record: addition of CTLA4-Ig. An excerpt: The CD80- and CD86-Igαtp proteins were compared to the corresponding CD80 and CD86-Ig proteins to determine their ability to stimulate cells expressing human CD28 using two murine T-cell hybridoma cell lines expressing human CD28, PCD28.1.s2.1 and DCL27CD28wt.s2. The PCD28.1.s2.1 cell line was described in Example 1, part 3. The DCL27CD28wt.s2 cell line was created by transfection of the DC27 cell line [F. Pages et al., Nature, 369:327-329 (1994); F. Pages et al., J. Biol. Chem., 271(16):9403-9409 (1996)] with the same CD28 expression vector used for the PCD28.1.s2.1 cells [D. Couez et al., Molecular Immunology, 31:47-57 (1994)]. These cell lines were examined for their ability to produce IL-2 in response to activation with CD80- and CD86-Ig in comparison with the corresponding Igαtp fusion proteins. 96-well plates were coated with or without a CD3 antibody together with the CD80 and CD86 fusion proteins. This was accomplished by first incubating the plates with a previously determined suboptimal concentration of hamster […] CD3 antibody (MAb 145-2C11, Boerhinger-Mannheim Biochemicals) for two hours at room temperature (RT) or with just buffer alone, washing the plates with PBS, adding goat anti-human Ig heavy chain (GAH-IgHc, Sigma Chemical Co.) for an additional two hours at RT, washing again and coating with different concentrations of the CD80 or CD86 fusion protein for 16-18 hours at 4° C., washing again, and finally blocking for 30 min. with 0.2% BSA-PBS. T cells (1×10^5/well) were added in 150 μl medium into duplicate wells. For comparison, the soluble fusion proteins and the 248.23.2 CD28 MAb (IgM) [A. Morretta, University of Genova, Italy] were added to non-coated wells. T cells were incubated in the wells for 24 hours at 37° C., and supernatants were collected and evaluated for IL-2 levels in a standard CTLL-2 bioassay [S. M. Gillis et al., J. Immunol., 120:2027 (1978)]. Briefly, 1×10^4 IL-2 dependent CTLL-2 cells (ATCC)/well in 75 μl medium were added to an equal volume of test supernatant and incubated for 24 hours at 37° C. The cells were pulsed with 10 μl of 5 mg/ml MTT (Sigma Chemical Co.) for 4 hours, and lysed with […] 10% SDS/0.01N HCl solution for 14-16 hours. OD570 readings were converted into ng/ml of IL-2 based on a standard curve generated by treating cells with known concentrations of IL-2.
IL-2 promoter activity and IL-2 levels were measured similarly to that described in parts A and B above, except that proliferation of the reader CTLL-2 cells was measured by ^3H-thymidine incorporation.

We go through 1 substance from patent US20020147326A1, “Hexameric fusion proteins and uses therefor” (SmithKline Beecham Corporation, priority 1996, published 2002).

Entries after “also recorded” stand apart in the source; their conditions may differ.

Consider “CTLA4-Ig: binding protein/Fc construct for human CTLA4 with human IgG1 Fc”, for which, in experiment [1], the “inhibition of biotinylated CD80-Igαtp binding to immobilized CD28-Ig” value is “inhibited; also recorded: blocked the binding sites on CD80-Igαtp”. Besides, in experiment [2], the “blockade of the response to CD80- and CD86-Igαtp” value is reported as “complete blockade”.
